The values below come from patent US20050287527A1, “Quantitative ranking of transient ligand binding to target biomolecules” (National Research Council of Canada, priority 2002, published 2005).

In test [1] the target is T1, thrombin (Homo sapiens, UniProt P00734). Briefly: Inhibition of human thrombin. The class given is biochemical. The settings on record: bivalent inhibitor of human thrombin.
Test [2] has as its target T1, thrombin. Briefly: Proteolytic cleavage of FD22 by active thrombin. It is filed as biochemical. Also noted: in complex with human α-thrombin. The note with it: peptide ~0.9 mM, 50 mM sodium phosphate, 0.2 mM EDTA, pH 5.5, active thrombin added. The procedure: Titration of the thrombin-cleaved FD22 peptide was carried out as follows. The sample of FD22 was concentrated by Speed-Vac to 40 μl and 180 μl of a concentrated thrombin solution were added to give a final thrombin:peptide ratio of approximately 1:20 in 60 mM sodium phosphate buffer, 0.2 mM EDTA, 10% D2O, at pH 5.5. Additional steps of thrombin titrations were carried out by the addition of the human […]-thrombin concentrated to ˜8 mg/ml.
FD22 has the sequence of Phe-Asp45-Pro-Arg-Pro-Gln-Ser50-His-Asn-Asp-Gly-Asp55-Phe-Glu-Glu-Ile-Pro60-Glu-Glu-Tyr-Leu-Gln65 (SEQ ID NO:20) and binds to thrombin via both the anion-binding exosite-I and the catalytic active site. The addition of active thrombin to the peptide FD22 (dissolved at a concentration of ˜0.9 mM in 50 mM sodium phosphate buffer, 10% D2O, 0.2 mM EDTA, at pH 5.5), caused slow and specific proteolytic cleavage at the Arg47-Pro48 peptide bond (taking >60 hours for the cleavage to complete). Upon completion of the cleavage, the sample contains a mixture of two peptides, Phe-Asp45-Pro-Arg (FD22-N) (SEQ ID NO:17) and Pro-Gln-Ser50-His-Asn-Asp-Gly-Asp55-Phe-Glu-Glu-Ile-Pro60-Glu-Glu-Tyr-Leu-Gln65 (FD22-C) (SEQ ID NO:18) that should bind separately to the active site and the anion-binding exosite I of thrombin.

For the next test, the target named is T2, human α-thrombin (Homo sapiens, UniProt P00734).
T2 construct: in complex with human α-thrombin
Briefly: 15N CPMG NMR relaxation dispersion of peptide ligand with human thrombin, fitting of koff. The settings on record: 288 K, two-site exchange. The class given is binding.

The target of test [3] is T3, human prothrombin (Homo sapiens, UniProt P00734). The note with it: binding with human prothrombin; previous reports; cited from earlier work.
Test [4] concerns the target T3, human prothrombin. Briefly: 15N CPMG NMR relaxation dispersion of peptide ligand with human prothrombin, fitting of koff. It is filed as binding.
Description: Dried powder of the purified peptide was weighed using a Sartorius Supermicro S4™ balance and dissolved at ˜1.5 mM in an aqueous solution (10% D2O) that was 50 mM in NaCl and 50 mM in sodium phosphate at pH 5.5. Carefully measured volume aliquots of human prothrombin at a stock concentration of 0.3 mM were added to the peptide solution to produce molar ratios of ˜1:45, ˜1:35, and ˜1:30 for the prothrombin and peptide concentrations, respectively.
The core of the NMR relaxation dispersion measurements is the relaxation-compensated CPMG pulse scheme (FIG. 1) (Millet, O., Loria, J. P., Kroenke, C. D., Pons, M., and Palmer, A. G. (2000) J.Am.Chem.Soc. 122, 2867-2877; and Loria, J. P., Rance, M., and Palmer, A. G. (1999) J.Am.Chem.Soc. 121, 2331-2332). A train of ^15N 180° pulses with a separation of 1 ms is applied at 100 ppm off the center of the HSQC spectrum at the beginning of the recycle delay d1 such that the total number of ^15N 180° pulses, 4N, is kept the same for all experiments with different CPMG pulse repetition rates. An XY-16 180° pulse train (Gullion, T., Baker, D. B., and Conradi, M. S. (1990) J.Magn.Reson. 89, 479-484) is also applied to both the ^1H and ^15N nuclei during the two INEPT periods, which limits the decay of exchange-broadened ligand resonances. Further enhancement in sensitivity was achieved by using the 3919 WATERGATE sequence for water suppression (Piotto, M., Saudek, V., and Sklenar, V. (1992) J.Biomol.NMR 2, 661-665). The 90° and 180° RF pulses are represented by narrow and wide bars, respectively, applied along the +X axis unless specified otherwise. The open rectangles are water-selective soft pulses with duration of 2 ms. During data acquisition, ^15N decoupling is achieved using a GARP sequence (Shaka, A. J., Barker, P. B., and Freeman, R. (1985) J.Magn.Reson. 64, 547-552) with an RF field of 1.0 kHz (at 500 MHz) or 1.2 kHz (at 800 MHz). The delays are: Δ=2.7 ms, τ=1 ms, d2=d1-4(N-n)τ and τCPMG=(T/4n−pw180N), where T is the total duration of the ^15N CPMG pulse train and pw^180N is the width of the ^15N 180° pulse. Sinebell-shaped gradient pulses with a duration of 1 ms are used with gradient strengths of g1=5 G/cm, g2=6 G/cm, g3=1.2 G/cm, g4=6 G/cm, and g5=10 G/cm. The phases of some RF pulses are the same as those reported previously with φ1=+X−X, φ2=4(+X) 4(−X) and φ3=2(+X) 2(+Y) 2(−X) 2(−Y) (Millet, O., Loria, J. P., Kroenke, C. D., Pons, M., and Palmer, A. G. (2000) J.Am. Chem. Soc. 122, 2867-2877), except that the phases for the last ^15N 90° pulse, the WATERGATE sequence and the RF receiver are cycled as φ4=4(+X) 4(−X), φ5=8(+X) 8(+Y), φ6=8(−X) 8(−Y) and receiver=(+X−X−X+X) 2(−X+X+X−X) (+X−X−X+X). Phase-sensitive ^1H—^15N HSQC spectra were obtained by incrementing φ4, according to the States-TPPI scheme (Marion, D., Ikura, M., Tschudin, R., and Bax, A. (1989) J.Magn.Reson. 85, 393-). […] NMR data were collected at ^15N frequencies of 50.684 and 81.076 MHz using Bruker Avance/DRX 500 and 800 MHz NMR spectrometers. The total length of the ^15N CPMG pulse train, T (FIG. 1), is kept at a constant value of 40 ms and the total number (4N) of the ^15N CPMG 1800 pulses was set to 100.
For the specific application herein, values for koff, kon′, koff^1, koff^2, kon^−1, k1, k2, R2b(500 MHz), R2b(800 MHz), δωb, δωb1 and δωb2 (FIG. 2) were fitted as independent variables. Values kon^−2, pb, pb1, pb2, and pf=(1−pb1−pb2), with p standing for the population of the corresponding species, were derived using the condition of microscopic reversibility kijpi=kjipj, where kij denotes the exchange rate constant for the transformation of species i into species j.
Test [5] deals with T1, thrombin. The settings on record: cited from earlier work.
Where [6] appears, read: "linear" three-site exchange model, Phe56, Glu57, Ile59 simultaneously.
Setting [7] is: general ("full") three-site exchange, Phe56, Glu57, Ile59 simultaneously.
Where [8] appears, read: residue Glu57, "linear" three-site exchange model, exchange between bound states.

Regarding “Phe-Asp45-Pro-Arg-Pro-Gln-Ser50-His-Asn-Asp-Gly-Asp55-Phe-Glu-Glu-Ile-Pro60-Glu-Glu-Tyr-Leu-Gln65 (FDPRPQSHNDGDFEEIPEEYLQ; Anti-thrombin peptide) [FD22]”, the IC50 (as a rule, the concentration that gives 50% inhibition) in the test with thrombin [1] is ~0.02 µM. Further, the “time for the cleavage at the Arg47-Pro48 peptide bond to complete” value with thrombin [2] is > 60 h.
For “Pro-Gln-Ser50-His-Asn-Asp-Gly-Asp55-Phe-Glu-Glu-Ile-Pro60-Glu-Glu-Tyr-Leu-Gln65 (PQSHNDGDFEEIPEEYLQ; Anti-thrombin peptide) [FD22-C]”, the koff (commonly the first-order rate constant of dissociation) in the test with human α-thrombin (residue Leu64 (FD22-C fragment), simultaneous fit at three α-thrombin concentrations) was ~400 s⁻¹; with human α-thrombin (residue Phe56 (FD22-C fragment), highest α-thrombin concentration only), ~400 s⁻¹; in the test with human α-thrombin (residue Tyr63 (FD22-C fragment), simultaneous fit at three α-thrombin concentrations), ~100 s⁻¹.
On to “N-acetyl-*Asp-*Phe-*Glu-*Glu-*Ile-Pro-Glu-Glu-Tyr-Leu-Gln [N-acetyl-Hir(55-65), anti-thrombin peptide]”, for which the equilibrium dissociation constant (Kd) (in general, the equilibrium constant for the complex coming apart) with human prothrombin [3] is 100 to 300 µM. In the test with human prothrombin [4] (setting [6]), the k1 is 560 ± 510 s⁻¹ and the “kex=k1+k2” value is 700±500 s^1. In addition, in the test with human prothrombin [4] (setting [7]), the k1 came out at 66 ± 57 s⁻¹, the k2 came to 110 ± 130 s⁻¹ and the “kex=k1+k2” value was found to be 180 ± 150 s⁻¹. Further, in the test with human prothrombin [4] (setting [8]), the k1 was determined as 50 ± 30 s⁻¹ and the k2 turned out to be 150 ± 70 s⁻¹. The “affinity for human thrombin compared with the same site on human prothrombin” value in the test with thrombin [5] is “higher affinity”.
